The text below walks through data of patent publication US20230159643A1 (H LUNDBECK A S, published 2023).

For orientation: EC50 means the concentration giving half of the maximal effect.

What all share (assay): BLI Octet 384RED (Example 8), Sortilin construct in solution
(Biolayer interferometry detects binding as a change in optical thickness at a sensor tip.)

The target in assay [1] is T1, Sortilin SORTECDBAP_hB45678 (human/tetraodon chimera).
T1 construct: Shuffle construct
T1 chain: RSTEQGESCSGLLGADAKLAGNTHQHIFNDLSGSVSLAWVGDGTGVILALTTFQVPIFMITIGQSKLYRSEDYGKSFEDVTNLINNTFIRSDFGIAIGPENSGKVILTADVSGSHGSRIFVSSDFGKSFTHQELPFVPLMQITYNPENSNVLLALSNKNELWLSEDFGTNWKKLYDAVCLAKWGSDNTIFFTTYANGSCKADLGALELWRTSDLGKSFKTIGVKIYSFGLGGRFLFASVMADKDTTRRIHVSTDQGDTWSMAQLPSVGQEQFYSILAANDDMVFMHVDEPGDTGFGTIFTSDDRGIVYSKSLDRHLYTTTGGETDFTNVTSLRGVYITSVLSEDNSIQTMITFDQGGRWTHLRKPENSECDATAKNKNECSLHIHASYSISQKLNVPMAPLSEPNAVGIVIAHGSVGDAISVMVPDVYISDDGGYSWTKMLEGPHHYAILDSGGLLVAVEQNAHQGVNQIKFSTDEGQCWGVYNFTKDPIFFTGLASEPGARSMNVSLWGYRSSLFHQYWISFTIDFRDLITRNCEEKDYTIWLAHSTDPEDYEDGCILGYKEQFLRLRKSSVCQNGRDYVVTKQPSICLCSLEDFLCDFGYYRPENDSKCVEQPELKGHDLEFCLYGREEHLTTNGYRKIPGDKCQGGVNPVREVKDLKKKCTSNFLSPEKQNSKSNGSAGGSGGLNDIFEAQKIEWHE
How it is done: (§1) Binding kinetics of anti-Sortilin HuMab antibodies to Sortilin were determined using Octet 384RED (Fortebio, Menlo Park, USA). HuMab solutions of 2 μg/ml were made by dilution in sample diluent (ForteBio, art. No. 18-5028). Prot A sensors (ForteBio, art. no. 18-0004) were prewetted with kinetics buffer (1:10 sample diluent in PBS) for at least 600 seconds. Subsequently sensors were immobilized with HuMab solution for 600 seconds. A baseline response was obtained by dipping in kinetics buffer for 120 seconds. Association of SORTECD constructs was performed during a 1000 seconds incubation. This was followed by dissociation in kinetics buffer for 100 seconds. After dissociation, sensors were regenerated (10 mM Glycine pH 1.0) and neutralized (kinetics buffer) 3 times for 5 seconds. […] A molecular weight of 76.8 kDA was used for SORTECDHis. Data was fitted with ForteBio Analysis 6.4 software, using a global full fit.

The target of another assay is T2, Sortilin hSORTECDBAP (human, UniProt Q99523 78-755, biotinylated on the BAP tag by co-expression of biotin ligase).
T2 construct: Soluble extracellular region (ECD, aa 1-755) with BAP tag
T2 sequence: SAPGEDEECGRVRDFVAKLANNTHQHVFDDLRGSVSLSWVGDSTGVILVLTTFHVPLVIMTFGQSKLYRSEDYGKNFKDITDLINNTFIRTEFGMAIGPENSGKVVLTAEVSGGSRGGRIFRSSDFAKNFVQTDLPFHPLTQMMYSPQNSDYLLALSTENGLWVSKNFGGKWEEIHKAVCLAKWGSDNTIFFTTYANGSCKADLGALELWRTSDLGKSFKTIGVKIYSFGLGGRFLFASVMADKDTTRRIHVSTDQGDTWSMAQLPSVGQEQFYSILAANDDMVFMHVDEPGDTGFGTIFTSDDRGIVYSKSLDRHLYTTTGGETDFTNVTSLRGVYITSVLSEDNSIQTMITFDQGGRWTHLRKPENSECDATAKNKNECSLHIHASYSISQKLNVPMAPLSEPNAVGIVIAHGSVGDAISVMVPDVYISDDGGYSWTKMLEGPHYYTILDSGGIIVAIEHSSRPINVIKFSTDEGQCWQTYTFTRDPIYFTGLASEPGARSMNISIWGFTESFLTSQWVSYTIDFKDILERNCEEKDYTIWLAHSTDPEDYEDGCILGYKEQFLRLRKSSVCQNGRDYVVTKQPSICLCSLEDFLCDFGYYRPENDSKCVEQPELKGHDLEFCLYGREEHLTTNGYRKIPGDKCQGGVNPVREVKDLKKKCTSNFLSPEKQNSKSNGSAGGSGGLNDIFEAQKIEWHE
Here is the method:
as §1

Assay [2] concerns the target T3, Sortilin SORTECDBAP_tetra (tetraodon).
T3 construct: Fully tetraodon Sortilin ECD with BAP tag; also called tetraodon Sortilin
T3 chain: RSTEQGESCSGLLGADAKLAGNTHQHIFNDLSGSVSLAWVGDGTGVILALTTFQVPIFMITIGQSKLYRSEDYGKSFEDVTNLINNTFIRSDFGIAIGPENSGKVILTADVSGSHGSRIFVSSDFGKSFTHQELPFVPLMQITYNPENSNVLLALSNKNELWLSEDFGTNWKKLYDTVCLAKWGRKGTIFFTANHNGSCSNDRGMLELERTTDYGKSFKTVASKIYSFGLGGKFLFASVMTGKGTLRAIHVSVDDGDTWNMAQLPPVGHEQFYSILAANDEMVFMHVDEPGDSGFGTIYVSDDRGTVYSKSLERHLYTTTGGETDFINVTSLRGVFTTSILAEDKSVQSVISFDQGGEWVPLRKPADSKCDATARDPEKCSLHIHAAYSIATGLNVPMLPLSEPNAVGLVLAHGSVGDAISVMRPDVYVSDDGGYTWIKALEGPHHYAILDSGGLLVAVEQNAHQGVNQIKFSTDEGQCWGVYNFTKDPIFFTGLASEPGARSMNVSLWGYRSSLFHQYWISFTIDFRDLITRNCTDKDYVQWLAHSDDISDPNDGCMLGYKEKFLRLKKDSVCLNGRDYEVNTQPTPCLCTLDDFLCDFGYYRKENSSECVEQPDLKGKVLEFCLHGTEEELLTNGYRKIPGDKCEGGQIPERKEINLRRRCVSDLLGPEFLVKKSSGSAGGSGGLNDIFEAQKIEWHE
Here is the method: as §1

B1: Antibody 5E1 (antibody, V domains shown)
VH: EVHLVESGGDLVNPGGSLKLSCEASGFIFSIYGMSWVRQTPDKRLEWVAMISSGGIYTQYPDSVKGRFTISRDNAKNTLYLQMSGLKSEDTGTYHCTRHDDSWFAYWGQGTLVTVSA
VL: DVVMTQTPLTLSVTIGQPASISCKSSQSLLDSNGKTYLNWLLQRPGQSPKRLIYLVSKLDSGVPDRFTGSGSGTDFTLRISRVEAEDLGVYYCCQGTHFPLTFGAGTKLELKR
notes: Mouse anti-human Sortilin monoclonal antibody from hybridoma (BALB/c), purified on protein G; Assigned to the D Region; also called 5E1F6; Ab 5E1
Regarding B1, the binding result in assay [1] and in assay [2] was “no binding (tested: 10 µg/ml construct)” in each case. Moreover, the EC50 in the assay with Sortilin hSORTECDBAP was found to be 1.14 ng/mL.

B2: Antibody 1F2 (antibody, V domains shown)
VH: EVQLVESGGDLVKPGGSLKLSCAASGFTFSSYGMSWVRQTPDKRLEWVAIISSGGSYTHYPDSVKGRFTISRDNAKNTLYLQMSSLKSEDTAMYYCARLCGPLCSGYWGQGTSVTVSS
VL: QAVVTQESALTTSPGETVTLTCRSSTGAVTTSNYANWVQEKPDHLFTGLIGGTNNRAPGVPARFSGSLIGDKAALTITGAQTEDEAIYFCALWYSNHFWVFGGGTKLTVLG
notes: Mouse anti-human Sortilin monoclonal antibody from hybridoma (BALB/c), purified on protein G; Assigned to the D Region; also called 1F2F4; Ab 1F2
With B2, the binding result in assay [1] and in assay [2] was “no binding (tested: 10 µg/ml construct)” in each case. For the same molecule, in the assay with Sortilin hSORTECDBAP, the EC50 was determined as 1.56 ng/mL.
